What was measured:
Settings in all cases: other: capillary electrophoresis
[1] = target: WT Cu, Zn superoxide dismutase-1 (SOD1), recombinant human (UniProt P00441); assay: capillary electrophoresis; both homodimers apo (metal-free, disulfide intact), mixed at 15 μM dimer each ([SOD1]total = 30 μM), followed over time; 10 mM potassium phosphate pH 7.4, CE at 22 °C, storage at 15 °C; KHet assumed from the fit extrapolated to t = 5000 min
[2] = target: WT Cu, Zn superoxide dismutase-1 (SOD1), recombinant human (UniProt P00441); assay: capillary electrophoresis; both homodimers as 4Zn-SOD1; 15 μM dimer each ([SOD1]total = 30 μM), followed over time; 10 mM potassium phosphate pH 7.4, CE at 22 °C, storage at 15 °C; KHet assumed from the fit extrapolated to t = 5000 min
[3] = target: WT Cu, Zn superoxide dismutase-1 (SOD1), recombinant human (UniProt P00441); assay: capillary electrophoresis; binder (first named) as apo-SOD1, target (second named, WT or TD) as 4Zn-SOD1; 15 μM dimer each ([SOD1]total = 30 μM), followed over time; 10 mM potassium phosphate pH 7.4, CE at 22 °C, storage at 15 °C; KHet assumed from the fit extrapolated to t = 5000 min
[4] = target: WT Cu, Zn superoxide dismutase-1 (SOD1), recombinant human (UniProt P00441); assay: capillary electrophoresis; binder (first named) as 4Zn-SOD1, target (second named, WT or TD) as apo-SOD1; 15 μM dimer each ([SOD1]total = 30 μM), followed over time; 10 mM potassium phosphate pH 7.4, CE at 22 °C, storage at 15 °C; KHet assumed from the fit extrapolated to t = 5000 min

Sequence of triply deamidated SOD1 (modeled with N26D/N131D/N139D substitutions), recombinant human (chain, as listed by the source N26D N131D N139D): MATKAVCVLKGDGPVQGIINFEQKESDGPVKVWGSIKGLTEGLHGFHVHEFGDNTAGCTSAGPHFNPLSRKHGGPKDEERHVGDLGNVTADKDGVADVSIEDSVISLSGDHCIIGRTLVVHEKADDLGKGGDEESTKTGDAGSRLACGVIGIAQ
Sequence of WT Cu, Zn superoxide dismutase-1 (SOD1), recombinant human (P00441 whole entry): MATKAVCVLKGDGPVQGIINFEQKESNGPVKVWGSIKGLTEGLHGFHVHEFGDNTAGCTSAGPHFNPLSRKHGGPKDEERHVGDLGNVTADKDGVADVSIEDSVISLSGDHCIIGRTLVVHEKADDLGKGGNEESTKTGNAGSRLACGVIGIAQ

Question: Which t30% (time to reach 30% heterodimer) [1] does the source give for “triply deamidated SOD1 (modeled with N26D/N131D/N139D substitutions), recombinant human” here?
Answer: 85.8 min

Question: What about the t30% (time to reach 30% heterodimer) [2] of the same substance?
Answer: 339 min

Question: And the t30% (time to reach 30% heterodimer) [3]?
Answer: 188 min

Question: What about the t30% (time to reach 30% heterodimer) [4] of the same substance?
Answer: 297 min
